Numbering of substitutions follows the chain as printed.
Legend:
Test in all cases: cell-based or functional assay
YeaW variant D221S = target: T1, YeaW variant D221S (E. coli, UniProt P0ABR7 1-374, D221S)
T1 sequence (looked up): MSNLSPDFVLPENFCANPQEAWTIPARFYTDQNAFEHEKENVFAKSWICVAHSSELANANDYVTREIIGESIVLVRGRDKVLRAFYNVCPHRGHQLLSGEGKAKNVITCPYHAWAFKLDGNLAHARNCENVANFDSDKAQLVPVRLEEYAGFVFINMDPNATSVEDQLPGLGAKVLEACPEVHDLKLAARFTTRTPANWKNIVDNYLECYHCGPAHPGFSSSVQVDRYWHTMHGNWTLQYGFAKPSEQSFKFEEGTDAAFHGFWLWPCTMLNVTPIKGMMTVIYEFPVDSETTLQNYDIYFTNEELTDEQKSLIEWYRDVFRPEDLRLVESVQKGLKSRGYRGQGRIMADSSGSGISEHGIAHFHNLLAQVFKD

YeaW variant D135S = target: T2, YeaW variant D135S (E. coli, UniProt P0ABR7 1-374, D135S)
T2 sequence (looked up): T1 sequence (looked up) with D135S, S221D

YeaW variant D135K = target: T3, YeaW variant D135K (E. coli, UniProt P0ABR7 1-374, D135K)
T3 sequence (looked up): T1 sequence (looked up) with D135K, S221D

YeaW variant K138S = target: T4, YeaW variant K138S (E. coli, UniProt P0ABR7 1-374, K138S)
T4 sequence (looked up): T1 sequence (looked up) with K138S, S221D

YeaW variant K138E = target: T5, YeaW variant K138E (E. coli, UniProt P0ABR7 1-374, K138E)
T5 sequence (looked up): T1 sequence (looked up) with K138E, S221D

YeaW variant K104S = target: T6, YeaW variant K104S (E. coli, UniProt P0ABR7 1-374, K104S)
T6 sequence (looked up): T1 sequence (looked up) with K104S, S221D

YeaW variant R83K = target: T7, YeaW variant R83K (E. coli, UniProt P0ABR7 1-374, R83K)
T7 sequence (looked up): T1 sequence (looked up) with R83K, S221D

B1: YeaX, reductase component of carnitine monooxygenase from E. coli (enzyme, UniProt P76254 1-321, looked up)
chain: MSDYQMFEVQVSQVEPLTEQVKRFTLVATDGKPLPAFTGGSHVIVQMSDGDNQYSNAYSLLSSPHDTSCYQIAVRLEENSRGGSRFLHQQVKVGDRLTISTPNNLFALIPSARKHLFIAGGIGITPFLSHMAELQHSDVDWQLHYCSRNPESCAFRDELVQHPQAEKVHLHHSSTGTRLELARLLADIEPGTHVYTCGPEALIEAVRSEAARLDIAADTLHFEQFAIEDKTGDAFTLVLARSGKEFVVPEEMTILQVIENNKAAKVECLCREGVCGTCETAILEGEADHRDQYFSDEERASQQSMLICCSRAKGKRLVLDL
L-carnitine depletion activity (wild type = 100%) (YeaW variant D221S): 91% | O2 depletion activity (wild type = 100%) (YeaW variant D221S): 99% | L-carnitine depletion activity (wild type = 100%) (YeaW variant D135S): 106% | O2 depletion activity (wild type = 100%) (YeaW variant D135S): 106% | L-carnitine depletion activity (wild type = 100%) (YeaW variant D135K): 94% | O2 depletion activity (wild type = 100%) (YeaW variant D135K): 97% | L-carnitine depletion activity (wild type = 100%) (YeaW variant K138S): 96% | O2 depletion activity (wild type = 100%) (YeaW variant K138S): 97% | L-carnitine depletion activity (wild type = 100%) (YeaW variant K138E): 100% | O2 depletion activity (wild type = 100%) (YeaW variant K138E): 102% | L-carnitine depletion activity (wild type = 100%) (YeaW variant K104S): 70% | O2 depletion activity (wild type = 100%) (YeaW variant K104S): 66% | L-carnitine depletion activity (wild type = 100%) (YeaW variant R83K): 76% | O2 depletion activity (wild type = 100%) (YeaW variant R83K): 79%
